Results on 42 substances are retold here after US20170166655A1.

For test [1], the target named is human V158 FcγRIIIa, extracellular region (human) (UniProt P08637). As to the kind of experiment: AlphaScreen competition. For orientation: Bead proximity is the source of the signal in Alpha formats.
The target is the same in test [2]. As to the kind of experiment: SPR.
The target of the next test is F158 FcγRIIIa (human) (UniProt P08637). Description: SPR. For orientation: In SPR one partner is held on a chip, and binding of the other changes the refractive index at the surface.
The next test addresses FcγRI (human) (UniProt P12314). Description: SPR.
A further test concerns the target FcγRIIb (human) (UniProt P31994). Description: SPR.
The next test has as its target H131 FcγRIIa (human) (UniProt P12318). As to the kind of experiment: SPR.
Another test addresses R131 FcγRIIa (human) (UniProt P12318). Description: SPR.
The next test deals with V158 FcγRIIIa (human) (UniProt P08637). Description: SPR.
In test [3] the target is human FcγRIIIa on human PBMC effector cells (human) (UniProt P08637). As to the kind of experiment: cell-based or functional assay.
The target in test [4] is human F158 FcγRIIIa, extracellular region (human) (UniProt P08637). Description: SPR.
Test [5] shares this target. Description: AlphaScreen competition.

What is called Kd is the concentration at which binding is half-saturated. Read a low Kd as tighter binding. Usually IC50 stands for the midpoint of a concentration-inhibition curve. A low value points to higher potency.

Take trastuzumab IgG1 I332D (antibody): the Fold WT in test [1] stood at 19 fold; in test [2], 2.57 fold.

In the case of IgG2_S239D/I332E/^P233L, the Kd in the test with F158 FcγRIIIa (human) worked out at 53.2 nM; with FcγRI (human) it was 3.28 nM; with FcγRIIb (human), 238 nM; with H131 FcγRIIa (human), 82.2 nM; in the test with R131 FcγRIIa (human) it was 67.4 nM; with V158 FcγRIIIa (human), 25.2 nM.

In test [2], trastuzumab IgG1 E272H (antibody) gave a Fold WT of 0.65 fold.

Take alemtuzumab IgG1 K326E (antibody): the Fold WT in [1] was 1.86 fold; in test [2], 3.13 fold.

On to alemtuzumab IgG1 E272H (antibody), for which the Fold WT in test [2] was 384 fold.

Turning to alemtuzumab IgG1 E283H (antibody), the Fold WT in test [2] was 2.31 fold.

As for alemtuzumab IgG1 V284E (antibody), in [2], the Fold WT stood at 1.51 fold.

Take alemtuzumab IgG1 E258Y (antibody): the Fold WT in [2] came out at 1.77 fold.

Regarding alemtuzumab IgG1 E272P (antibody), the Fold WT was found to be 1.46 fold in test [1] and 1.41 fold in [2].

On to alemtuzumab IgG1 E272R (antibody), for which, in test [2], the Fold WT amounted to 1.38 fold.

On to “IgG2_P233E/V234L/A235L/^235G/S239D/I332E/G327A”, for which the dissociation constant (Kd) with F158 FcγRIIIa (human) is 12.5 nM; with FcγRIIb (human) it was 101 nM; with H131 FcγRIIa (human), 127 nM; with R131 FcγRIIa (human), 63.9 nM.

Consider “trastuzumab IgG1 S298A/E333A/K334A (antibody)”, for which, in test [3], the ADCC EC50, FIG. 117c, PBMCs F158/F158 FcγRIIIa turned out to be 0.2 ng/mL; the ADCC Fold WT, FIG. 117c, PBMCs F158/F158 FcγRIIIa was found to be 3.6 fold; the ADCC log(EC50), FIG. 117c, PBMCs F158/F158 FcγRIIIa was -0.72 log(ng/ml).

As for alemtuzumab IgG1 WT (antibody), the values for the equilibrium dissociation constant (Kd) in test [4] and in [2] were 730 nM and 68 nM, respectively.

As for alemtuzumab IgG1 S239D/I332E (antibody), in test [3], the ADCC EC50, DoHH-2 target cells, PBMCs V158/F158 FcγRIIIa is 3 ng/mL; the ADCC Fold WT, DoHH-2 target cells, PBMCs V158/F158 FcγRIIIa came out at 3.3 fold; the ADCC log(EC50), DoHH-2 target cells, PBMCs V158/F158 FcγRIIIa is 0.49 log(ng/ml).

As to “alemtuzumab IgG1 S298A/E333A/K334A (antibody)”, the dissociation constant (Kd) in test [4] stood at 156 nM; in test [2] it was 39 nM.

In the case of alemtuzumab IgG1 I332E (antibody), the Kd in [4] was 72 nM; in test [2] it was 31 nM.

As for alemtuzumab IgG1 S239E (antibody), the values for the Fold WT in [1] and in test [2] were 2.64 fold and 3.28 fold, respectively.

With “rituximab IgG1 S298A/E333A/K334A (antibody)”, in test [3], the ADCC EC50, FIG. 118b stood at 0.37 ng/mL; the ADCC Fold WT, FIG. 118b is 4.6 fold; the ADCC log(EC50), FIG. 118b is -0.44 log(ng/ml).

alemtuzumab IgG1 S267E (antibody) registered a Fold WT in test [2] of 2.62 fold.

The substance alemtuzumab IgG1 E283L (antibody) showed a Fold WT in test [2] of 2.56 fold.

As to trastuzumab IgG1 E283L (antibody), the Fold WT was 19.9 fold in [1] and 3.68 fold in [2].

alemtuzumab IgG1 V264I/I332E (antibody): in test [3], the ADCC EC50, DoHH-2 target cells, PBMCs V158/F158 FcγRIIIa was found to be 4 ng/mL; the ADCC Fold WT, DoHH-2 target cells, PBMCs V158/F158 FcγRIIIa is 2.5 fold; the ADCC log(EC50), DoHH-2 target cells, PBMCs V158/F158 FcγRIIIa was 0.6 log(ng/ml). In test [5], this substance came in with a Fold WT of 15.6 fold and an IC50 of 1.1 nM. In test [1], this substance showed a Fold WT of 12.8 fold and a half-inhibitory concentration (IC50) of 0.5 nM. Besides, in [4], the Fold WT was 14 fold and the equilibrium dissociation constant (Kd) was determined as 52 nM. In test [2], this substance yielded a Fold WT of 4 fold and a dissociation constant (Kd) of 17 nM.

In the case of “alemtuzumab IgG1 N297D/A330Y/I332E (aglycosylated) (antibody)”, the fold of glycosylated WT alemtuzumab in [1] was 0.4 fold.

Regarding alemtuzumab IgG1 S304T (antibody), the Fold WT in test [2] was 12.8 fold.

As for IgG2_S239D/I332E/^P233EL, the equilibrium dissociation constant (Kd) was 59.6 nM with F158 FcγRIIIa (human); 1.94 nM in the test with FcγRI (human); 264 nM with FcγRIIb (human); 71.8 nM with H131 FcγRIIa (human); 64.2 nM in the test with R131 FcγRIIa (human); 21.6 nM with V158 FcγRIIIa (human).

In the case of alemtuzumab IgG1 H268D (antibody), the Fold WT in test [2] was 5.66 fold.

As to trastuzumab IgG1 K334I (antibody), the Fold WT in test [1] worked out at 15.2 fold; in test [2], 7.1 fold.

With rituximab IgG1 WT (antibody), in test [3], the ADCC EC50, FIG. 118b, WIL2-S target cells, human PBMCs was 1.7 ng/mL; the ADCC EC50, FIG. 118c, PBMCs F158/F158 FcγRIIIa was 5.9 ng/mL; the ADCC log(EC50), FIG. 118b, WIL2-S target cells, human PBMCs was 0.23 log(ng/ml); the ADCC log(EC50), FIG. 118c, PBMCs F158/F158 FcγRIIIa was 0.77 log(ng/ml).

alemtuzumab IgG1 E258H (antibody): the Fold WT in test [1] was determined as 2.35 fold; in test [2] it was 5.5 fold.

Turning to alemtuzumab IgG1 K246H (antibody), the Fold WT in test [2] was 22.4 fold.

For the substance trastuzumab IgG1 A330Y/I332E (antibody), in test [3], the ADCC EC50, FIG. 117b is 0.9 ng/mL; the ADCC Fold WT, FIG. 117b was found to be 12.8 fold; the ADCC log(EC50), FIG. 117b is -0.04 log(ng/ml).

alemtuzumab IgG1 S298A (antibody): the Kd in test [4] came to 285 nM; in test [2], 52 nM.

Turning to “alemtuzumab IgG1 S239D/N297D/I332E (aglycosylated) (antibody)”, the fold of glycosylated WT alemtuzumab in test [1] amounted to 0.8 fold.

Substance alemtuzumab IgG1 R255Y (antibody) yielded a Fold WT in test [2] of 1.41 fold.

For the substance IgG2_P233E/V234L/A235L/^235G/G327A, the equilibrium dissociation constant (Kd) worked out at 69400 nM in the test with F158 FcγRIIIa (human); 0.145 nM in the test with FcγRI (human); 663 nM with FcγRIIb (human); 313 nM with H131 FcγRIIa (human); 260 nM with R131 FcγRIIa (human); 73.6 nM with V158 FcγRIIIa (human).

Substance alemtuzumab IgG1 I332D (antibody) had a Fold WT in test [2] of 11.2 fold.

Take alemtuzumab IgG1 V264I (antibody): the Kd in test [4] came out at 550 nM; in test [2], 64 nM.

Regarding trastuzumab IgG1 A330L/I332E (antibody), in test [3], the ADCC EC50, FIG. 117b stood at 1.1 ng/mL; the ADCC Fold WT, FIG. 117b stood at 10.5 fold; the ADCC log(EC50), FIG. 117b is 0.04 log(ng/ml).

On to “trastuzumab IgG1 S239D/I332E/S298A (antibody)”, for which the Kd in test [4] was found to be 4.9 nM; in test [2], 8.7 nM.

Take “IgG2_P233E/V234L/A235L/^235G/S239D/I332E”: the dissociation constant (Kd) with F158 FcγRIIIa (human) came to 50.2 nM; with FcγRI (human), 0.0908 nM; with FcγRIIb (human), 84.2 nM; with H131 FcγRIIa (human), 68.3 nM; in the test with R131 FcγRIIa (human) it was 68.5 nM; in the test with V158 FcγRIIIa (human), 12.4 nM.

In turn, alemtuzumab IgG1 T260H (antibody) returned a Fold WT in test [2] of 1.86 fold.

IgG2_S239D/I332E/^V234L: the Kd turned out to be 96.2 nM in the test with F158 FcγRIIIa (human); 0.634 nM with FcγRI (human); 95.8 nM with FcγRIIb (human); 29 nM with H131 FcγRIIa (human); 27.8 nM in the test with R131 FcγRIIa (human); 33.7 nM with V158 FcγRIIIa (human).
